Measurements from the supplement of paper PMC9732359.
± gives the uncertainty stated by the source.

Experiment: protein stability index of a GFP-peptide fusion (yeast GPS) (PSI 1-4); higher = more stable; sorted into four equal gates, so the index is relative within each strain
Outline: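 Mid-log yeast cultures in leucine-free medium, carrying a pooled plasmid library, were sorted into four equal gates by their GFP/Cherry fluorescence ratio. Each plasmid expressed Cherry along with GFP fused upstream of a tiled 17-residue yeast protein peptide. Plasmids recovered from each gate were PCR-amplified and Illumina-sequenced, with reads assigned to strains by barcodes. The protein stability index was obtained by summing each gate's read frequency weighted by its gate number.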

Sequence | protein stability index (doa10∆) | protein stability index (pdr5∆) | protein stability index (san1∆) | protein stability index (ubr1∆)
PTRMVRVAKGSGTSVFE [SRP54] | 2.94 ± 0.29 | – | – | –
NVTSSGDHNKLRSTIAN [YML103C/NUP188] | 2.43 ± 0.051 | 2.48 ± 0.062 | 2.35 ± 0.071 | 2.02 ± 0.033
ANALGGLGVNRRILAAA [SSN3] | 1.77 ± 0.068 | 1.69 ± 0.069 | 1.58 ± 0.16 | 1.92 ± 0.046
GISMFDYISGISVGLYD [SKI6] | 2.02 ± 0.092 | 2.02 ± 0.069 | 2.03 ± 0.069 | 2.1 ± 0.052
IVAAGGGSGAATFSVSQ [CSL4] | – | 3.47 ± 0.2 | – | –
TFLSEWGMEPLEDYVPH [RPB2] | 3.17 ± 0.1 | 3.71 ± 0.23 | 3.13 ± 0.12 | 2.81 ± 0.14
TGKTLLARACAAQTNAT [RPT5] | 2.72 ± 0.13 | 2.92 ± 0.089 | 2.9 ± 0.096 | 2.61 ± 0.29
NTPLSLPTRGTLESLEN [COR1] | 3.21 ± 0.12 | 2.37 ± 0.08 | 2.6 ± 0.27 | 2.41 ± 0.065
MSVPAIAPRRKRLADGL [DIS3] | 3.37 ± 0.095 | 3.18 ± 0.11 | 3.26 ± 0.078 | 3.11 ± 0.063
IVKFKQKEEGRSFTKAI [YLR335W/NUP2] | 3.13 ± 0.069 | 3.09 ± 0.066 | 3.24 ± 0.05 | 3.29 ± 0.047
RHNKSHTLCNRCGRRSF [RPL37A] | 3.25 ± 0.045 | 3.18 ± 0.064 | 2.82 ± 0.042 | 3.08 ± 0.039
FDLVRNIVKQNEGIDLD [SMC2] | 3.11 ± 0.13 | 3.51 ± 0.12 | 3.24 ± 0.081 | 3.45 ± 0.1
CKLFLADVFTDDDLFET [YCG1] | 3.03 ± 0.08 | 3.06 ± 0.051 | 3.03 ± 0.048 | 2.59 ± 0.038
LALTTLSEPLIKIGIRV [YCG1] | 1.81 ± 0.061 | 2.06 ± 0.047 | 1.74 ± 0.065 | 2.01 ± 0.057
SRRPEPKKFGGKGARSR [RPS16A] | 3.06 ± 0.11 | 3.25 ± 0.095 | 3.25 ± 0.077 | 3.06 ± 0.052
LLKKKDDPSKVRLLCRS [YLR335W/NUP2] | 2.12 ± 0.047 | 1.85 ± 0.063 | 1.98 ± 0.089 | 2.61 ± 0.15
PVAKWFVKFITYLTQEI [SIN4] | 2.32 ± 0.048 | 1.88 ± 0.046 | 1.76 ± 0.078 | 2.07 ± 0.064
SKDVQQIDYKLESFQAV [RPS7A] | 2.89 ± 0.053 | 3.06 ± 0.059 | 3.08 ± 0.054 | 3.07 ± 0.038
VGTAIDSILNYAKSEFD [ECM29] | 2.76 ± 0.2 | 2.77 ± 0.1 | 2.92 ± 0.25 | 3.08 ± 0.088
AKSTPNTNPSPLKTQTK [GAL11] | 2.82 ± 0.051 | 2.94 ± 0.046 | 2.64 ± 0.05 | 2.91 ± 0.038
TCGSKGSTLNVSQMVAV [RPO31] | 3.1 ± 0.13 | 2.89 ± 0.097 | 2.91 ± 0.15 | 2.79 ± 0.15
LRQLASYYSREQDALFI [RPN1] | 1.7 ± 0.045 | 1.8 ± 0.046 | 1.63 ± 0.08 | 1.81 ± 0.042

Sequence | protein stability index (doa10∆) | protein stability index (pdr5∆) | protein stability index (san1∆) | protein stability index (ubr1∆)
SRFTNVSVIAPESQGQH [YMR153W/NUP53] | 3 ± 0.09 | 3.39 ± 0.087 | 2.6 ± 0.12 | 3.19 ± 0.048
EKELQNEIKQLGSDSSD [SRB4] | 2.95 ± 0.1 | 2.81 ± 0.1 | 2.27 ± 0.087 | 2.85 ± 0.12
NRPNTLDPALLRPGRID [RPT1] | 2.72 ± 0.14 | 3.01 ± 0.14 | 3.16 ± 0.064 | 2.61 ± 0.13
PQPLFMEDPPSTVSGEL [YMR153W/NUP53] | 3.38 ± 0.2 | 3.64 ± 0.19 | 3.58 ± 0.11 | 3.12 ± 0.16
DNKIDIYQIHIPYAAKL [RPB2] | 3.16 ± 0.082 | 2.5 ± 0.11 | 3.15 ± 0.092 | 2.92 ± 0.063
FQTPFRRRREGKTDYYQ [RPL5] | – | 3.31 ± 0.12 | 2.97 ± 0.12 | 3.03 ± 0.11
TSEMKVLSIPPANHLQS [YGL100W/SEH1] | 2.64 ± 0.067 | 2.15 ± 0.076 | 2.39 ± 0.081 | 2.56 ± 0.05
KTWEKVTLDFGNIFADL [SMC2] | 2.81 ± 0.099 | 2.92 ± 0.12 | 3.39 ± 0.1 | 3.12 ± 0.13
EISKKDFVRKGGLQKGK [SIR3] | 2.38 ± 0.11 | 1.91 ± 0.083 | 1.98 ± 0.11 | 1.95 ± 0.092
IWLIKCCYFIEWKSNHK [SRB8] | 1.69 ± 0.067 | 2.12 ± 0.063 | 2.55 ± 0.063 | 2.59 ± 0.15
NENRNTGAGVDVNTNAN [SNF11] | 3.11 ± 0.062 | 3.42 ± 0.06 | 3.15 ± 0.039 | 3.36 ± 0.054
VEDDLVTVQTELNEEKK [SMC2] | 3.23 ± 0.16 | 2.55 ± 0.078 | 2.55 ± 0.08 | 2.85 ± 0.087
RQSSDESDNYRLLPNGS [YML031W/NDC1] | 3.03 ± 0.06 | 2.97 ± 0.06 | 3.13 ± 0.078 | 3.05 ± 0.054
IIGHNPDENKTRVRLPS [RPL2A] | 2.93 ± 0.074 | 3.09 ± 0.077 | 2.93 ± 0.046 | 3 ± 0.048
MIAKEVKTSPDAKKCIA [FAS1] | 1.71 ± 0.15 | 2.95 ± 0.28 | 2.8 ± 0.28 | 2.05 ± 0.12
KKVVIVKPHDEGSKSHP [RPL27A] | 2.87 ± 0.081 | 2.86 ± 0.066 | 2.82 ± 0.093 | 3.04 ± 0.057
TPPDDLHPYVPSSKPQE [SRB8] | 2.71 ± 0.081 | 2.98 ± 0.073 | 2.93 ± 0.048 | 3.07 ± 0.049
DSVTTETGKLLSGLAQR [BRN1] | 2.5 ± 0.12 | 2.87 ± 0.099 | 2.66 ± 0.15 | 2.66 ± 0.072
PNFTGIDKLMLSPSDQF [SSN2] | 1.39 ± 0.08 | 1.33 ± 0.068 | – | 1.61 ± 0.067
CGAGVFLANHKDRLYCG [RPS31] | 2.19 ± 0.097 | 1.46 ± 0.16 | 1.06 ± 0.21 | 2.5 ± 0.2
TKISTLAVKVHGGSRYA [QCR2] | 1.34 ± 0.12 | 1.64 ± 0.21 | 1.18 ± 0.29 | 1.41 ± 0.17
GTANNNSNTTNQNSSTG [YJL041W/NSP1] | 3.19 ± 0.064 | 3.37 ± 0.075 | 3.25 ± 0.042 | 3.09 ± 0.061
